The labels stand for the following.
B1: Hammerhead Ribozyme (parent)
chain: ACCGGAUGUGCUUUCCGGUCUGAUGAGUCCGUGAGGACGAAACAG

Variants of B1 are the subject of the data set. Description: self-cleavage, relative activity (ratio to wild type); higher = more cleavage; co-transcriptional.
As for ACCGGAUGUGCUUUCCUGUCUGAUGAGUCCGUGCGGACGAAACAG, the self-cleavage was 0.46.

Turning to ACCGGAUGUGCUUUCCGGUCUUAUGAGUCCGUGAGGACGAGACAG, the self-cleavage turned out to be 0.311.

As for ACCGGAUGUGCUUUACGGUCUGAUGAGUCCGUGCGGACGAAACAG, the self-cleavage worked out at 1.09.

Take ACCGGAUGUGCUUUCCGGUCUGAUGAGUCCGUAAGGACGAGACAG: the self-cleavage was 0.384.

Regarding ACCGGACGUGCUUUCCGGUCUGAUGAGUCCGAGAGGACGAAACAG, the self-cleavage was determined as 1.02.

For the variant ACCGGAUGUGCUUUCCGGUCUGAUGAGUCCGUGUGGACGAAGCAG, the self-cleavage came out at 0.258.

As to ACCGGAUGUGCUUUCUGGUCUGAUGAGUCCGUAAGGACGAAACAG, the self-cleavage turned out to be 1.14.

Take ACCGGAUGUGCUUUCCGGUCUGACUAGUCCGUGAGGACGAAACAG: the self-cleavage was found to be 0.305.

ACCGGAUGUGCUUUCCGGUCUGAUGAUUCCCUGAGGACGAAACAG: the self-cleavage amounted to 0.462.

ACCGGAUGUGAUUUCCGGUCUGAUGAGUUCGUGAGGACGAAACAG: the self-cleavage is 1.08.

As for AUCGGAUGUGCUUUCCGGUCUGAUGAGUCCGUGAGGAAGAAACAG, the self-cleavage worked out at 0.854.

ACCGGAUGUGCUUUCCGGUGUGAUGAGUCCGUGAGGACGAAACAU: the self-cleavage was 0.316.

Regarding ACCGAAUGUGCUUUCCGGUCUGAUGAGUCCGUGAGGACGAAACAG, the self-cleavage was determined as 1.32.

For ACCGGCUGUGCUUUCCGGUCUGAUGAGUCUGUGAGGACGAAACAG, the self-cleavage turned out to be 0.51.

ACCCGAUGUGCUUUCCGGUCUGAUGAGUCCGUGAGGACGAAACCG: the self-cleavage is 0.422.

Take ACCGGAAGUGCUUUCCGGUCUGAUGAGUCCAUGAGGACGAAACAG: the self-cleavage turned out to be 1.28.

For ACCGGAUGGGCUUUCCGGUCUGAUGAGUCCGUGAGCACGAAACAG, the self-cleavage was found to be 0.593.

For ACCGGAUGUGCUUUCCGGUCUGAAGAGUCCCUGAGGACGAAACAG, the self-cleavage came to 0.814.

For ACCGGAUAUGCUUUCCGGUCUGAUGAGUCCUUGAGGACGAAACAG, the self-cleavage was 1.14.

Regarding ACCGGAUGUGCUUUCCGGUCUGAGGAGUCCGUGAGGACGAAACAU, the self-cleavage came out at 0.489.

Regarding CCCGGGUGUGCUUUCCGGUCUGAUGAGUCCGUGAGGACGAAACAG, the self-cleavage amounted to 0.417.

For ACCGGAUGUGCUUUCCAGUCUGAUGAGUCCGUGAGGAGGAAACAG, the self-cleavage turned out to be 0.478.

In the case of ACCGGAUGUGCUUUCCGGUCUGAUGAGUCGGUGACGACGAAACAG, the self-cleavage stood at 1.03.

ACCGGAUAUGCUUUCAGGUCUGAUGAGUCCGUGAGGACGAAACAG: the self-cleavage came out at 1.2.

For the variant ACCGGAUGUGCUUUCCGCUCUGAUGAGUCCGUGAGCACGAAACAG, the self-cleavage stood at 0.352.

For the variant ACCGGAUGUGCGUUCCGGUCUGAUGAGUCGGUGAGGACGAAACAG, the self-cleavage came to 0.706.

In the case of ACCGGAUGUGCUUUCCGGUCUGAUGAGUUCGUAAGGACGAAACAG, the self-cleavage was 0.959.

As to ACCAGAUGUGCUUUCCGGUCUGAUGAGUUCGUGAGGACGAAACAG, the self-cleavage turned out to be 0.543.

For the variant ACCGGAUGUGCUUUCCGGUCUGAUGAGUCCGUGAGGACGAUACCG, the self-cleavage was found to be 0.377.

As to ACCGGAUGUGCUAUCCGGUCUGAUGAGUCCCUGAGGACGAAACAG, the self-cleavage came to 1.39.

In the case of ACCGGAUGUGCUUUCCGGUAUGAUGAGUCCGUGAGGACGAAACCG, the self-cleavage amounted to 0.366.

Regarding ACCGGAUGUGCUUUCCGGUCUGAUGAGACCGCGAGGACGAAACAG, the self-cleavage was 0.626.

ACCGGAUCUGCUUUCCGGUCUGAUGAGACCGUGAGGACGAAACAG: the self-cleavage was determined as 1.22.

On to ACCCGAGGUGCUUUCCGGUCUGAUGAGUCCGUGAGGACGAAACAG, for which the self-cleavage turned out to be 0.768.

As to ACCAGGUGUGCUUUCCGGUCUGAUGAGUCCGUGAGGACGAAACAG, the self-cleavage worked out at 0.355.

For the variant ACCGCAUGCGCUUUCCGGUCUGAUGAGUCCGUGAGGACGAAACAG, the self-cleavage is 0.63.

As for ACCCGAUGUGCUUUCCGGUCUGAUGAGUUCGUGAGGACGAAACAG, the self-cleavage worked out at 0.567.

Take ACCGGUUGUGCUUUCCGGUCUGAUGAGUCCGUGAGGGCGAAACAG: the self-cleavage was determined as 0.529.

As for UCCGGAUGUGCUUUCCGGUCUGAUGAGUCCGUGACGACGAAACAG, the self-cleavage is 0.47.

Consider ACCGGAUGUGCUUUCCGGUCUGAUGAGUCCGUGAGGACGCAGCAG, for which the self-cleavage came to 0.314.

ACCGGAUGUGCUUUCCGGUCUGAUGAGUCCGUGAGGAGGAAACUG: the self-cleavage was 0.407.

Take GCCGGAUGUGCUUUCGGGUCUGAUGAGUCCGUGAGGACGAAACAG: the self-cleavage came out at 0.778.

For the variant AGCGGAUGUGCUUUCCGGUCUGAAGAGUCCGUGAGGACGAAACAG, the self-cleavage is 0.476.

As for ACCGGAUGUGCAUUCCGGUCUGAUGAGUCGGUGAGGACGAAACAG, the self-cleavage was found to be 0.859.

Consider ACCGGAUCUGCUUUCCGGUCUGAUUAGUCCGUGAGGACGAAACAG, for which the self-cleavage came out at 0.329.

As to ACCGGAUGUGCUUUCCGGUCGGAUGAGUCCGUGAAGACGAAACAG, the self-cleavage is 0.28.

Take GCCGGAUGUGCUUUCCGGUCUGAUGAGUCCGUGCGGACGAAACAG: the self-cleavage turned out to be 1.1.

Regarding ACCGGAUGUGCUUUCCGGUCUGAUAAGUCCGAGAGGACGAAACAG, the self-cleavage is 0.352.

As to ACCGGAUGUGCUAUCCGGUCUGCUGAGUCCGUGAGGACGAAACAG, the self-cleavage was determined as 0.503.

For ACCGGAUGUACUUGCCGGUCUGAUGAGUCCGUGAGGACGAAACAG, the self-cleavage came out at 1.04.

As to ACCGGAUGUGCUUUCCGAUCUGAUGAGUCCGUAAGGACGAAACAG, the self-cleavage came out at 0.873.

With ACCGGAUGUGCUUUCCGCUCUGAUGAGUCCGUGCGGACGAAACAG, the self-cleavage was 0.36.

Consider ACCGGAUAUGCUUUCCGGCCUGAUGAGUCCGUGAGGACGAAACAG, for which the self-cleavage worked out at 0.489.

For ACCGGAUUUGUUUUCCGGUCUGAUGAGUCCGUGAGGACGAAACAG, the self-cleavage was found to be 1.37.

As to ACCGGAUGUACUUUCCGGUCUGAUGAGUCCGUGAGGACGACACAG, the self-cleavage stood at 0.306.

Turning to ACCGGAUGGGCUUUCCGGUCUGAUGAGUCCGUGAGGCCGAAACAG, the self-cleavage came out at 0.805.

ACCGGAUGUGCAUUACGGUCUGAUGAGUCCGUGAGGACGAAACAG: the self-cleavage came to 0.979.

The values are drawn from the RNAGym collection of RNA variant scans (doi:10.7554/elife.80360).
